The values below come from patent US11180762B2, “Methods and compositions for the treatment of cancer” (CHILDREN'S MEDICAL CENTER CORPORATION, priority 2014, dated 2021).

One series concerns subcutaneous tumors. Kind of series: Tumor accumulation after intravenous injection of fluorescent EpCAM-AsiCs. The format is in vivo, nude mice. The note with it: tail vein. An excerpt:
To be clinically useful, EpCAM-AsiCs need to be taken up by disseminated tumor cells. […] The EpCAM-AsiCs were detected around the injection site on day 2, but were only found within the EpCAM+ tumor on day 4.

The subject of the next series is EpCAM+ cell lines. Kind of series: In vitro gene knockdown by AsiC designs. It counts as cell-based, human.
Series [1] deals with IFNβ, IL-6, IP-10 and IFN-induced genes. Kind of series: Innate immune stimulation in mice. It counts as in vivo. The note with it: 5 mg/kg sc. As to the method:
Mice were injected sc with eGFP EpCAM-AsiCs (5 mg/kg, n=3) or ip with Poly(I:C) (5 or 50 mg/kg (n=2/dose). FIG. 8A: Serum samples, collected at baseline and 6 and 16 hr after treatment were assessed for IFNβ, IL-6 and IP-10 by multiplex immunoassay. * p<0.05. ** p<0.01, *** p<0.001, compared to baseline. FIG. 8B: mRNA expression of cytokine and IFN-induced genes, relative to gapdh was assayed by qRT-PCR in total splenocytes harvested 16 hr post treatment. ** p<0.01, compared to untreated (NT, n=3).
Mice were injected sc with eGFP EpCAM-AsiCs (5 mg/kg) or ip with Poly(I:C) (5 or 50 mg/kg). Serum samples, collected at baseline and 6 and 16 hr after treatment were stored at −80° C. before measuring IFNβ, IL-6 and IP-10 using the ProcartaPlex Multiplex Immunoassay (Affymetrix/eBioscience, San Diego, Calif.). Spleens, harvested at sacrifice 16 hr post treatment, were stored in RNAlater (Qiagen) before extracting RNA using TRIZOL (Invitrogen) with the gentleMACS Dissociator (MACS Miltenyi Biotec, San Diego, Calif.). cDNA was synthesized using Superscript III and random hexamers (Invitrogen) and PCR was performed using SsoFast EvaGreen Supermix and a Bio-Rad CFX96 Real-Time PCR System (Bio-Rad Laboratories, Hercules, Calif.) using the following primers: […]

For a further series, the system named is MB468-luc cells. The experiment in a line: Tumor initiation by ex vivo treated EpCAM+ cells in nude mice. To be noted: cells treated ex vivo 24 h/overnight, then implanted, imaged 20 days. As to the method: For tumor initiation studies 8-week old female Nu/J mice (Stock #002019, Jackson Laboratories) were injected subcutaneously with MB468-luc (5×10^6) cells pretreated for 24 h with EpCAM-AsiC-GFP, EpCAM-AsiC-PLK1 or untreated. Cells were trypsinized with Tryple Express (Invitrogen), resuspended in WIT media and injected subcutaneously in the flank. Following intraperitoneal injection of 150 mg/kg D-luciferin (Caliper Life Sciences) luminescent images of the whole body were taken every 5 days for a total of 20 days using the IVIS Spectra system (Caliper Life Sciences).

In the next series the test system is MB231-luc-mCherry tumors. The experiment in a line: Tumor inhibition, EpCAM− MB231-luc-mCherry xenograft. It counts as in vivo, nude mice. The note with it: 5 mg/kg sc every 3 d (72 h) for 2 wks. As to the method: For tumor inhibition studies, MB468-luc (5×10^6) and MB231-luc-mCherry (5×10^5) cells trypsinized with Tryple Express (Invitrogen), resuspended in a 1:1 WIT-Matrigel solution and injected subcutaneously in the flank of 8-week old female Nu/J mice (Stock #002019, Jackson Laboratories). Tumors size was analyzed daily using the IVIS Spectra, after 5 days tumors were clearly visible. […] Mice were treated every 72 h for 14 days.

Another series has as its system Argonaute (AGO). The experiment in a line: PLK1 siRNA association with Argonaute (pan-AGO immunoprecipitation, qRT-PCR). It counts as cell-based, human. To be noted: MDA-MB-468 cells treated 2 days; listed as PLK1 EpCAM-AsiCs. An excerpt:
MB-468 cells, treated with PLK1 EPCAM-AsiC or siRNA for 2 days, were lysed, and cell lysates were immunoprecipitated with pan-AGO antibody or IgG isotype control. The amount of PLK1 siRNA in the immunoprecipitates was quantified by Taqman qRT-PCR, presented as log2 mean with SEM, relative to miR-16. **, P<0.01 by Student's t-test relative to siRNA-treated cells. ND, not detectable. […] This is likely because most RNAs that are taken up by cells are not released from endosomes to the cytosol (A. Wittrup et al., Visualizing lipid-formulated siRNA release from endosomes and target gene knockdown. Nature Biotechnology 2015, in press).
Uptake was clearly detected at 22 hr, but increased greatly after 43 hr. To test whether EpCAM-AsiCs are specifically taken up by EpCAM bright cell lines, the 3′ end of the antisense strand of the AsiC was fluorescently labeled. […] Previous studies have shown that AsiCs are processed within cells by Dicer to release the siRNA from the aptamer (10, 12, 15).
A general note: Quantitative PCR measures a nucleic acid by following its amplification.

Series [2] deals with breast cancer cell lines. The experiment in a line: Sphere (mammosphere) formation assay. The format is cell-based, human. As to the method: (§1) For colony formation assay, 1,000 viable cells were treated for 6 h in round bottom 96-well plates and then transferred to 10-cm plates in serum-containing medium. Medium was replaced every 3 d. After 8-14 d, cells were fixed in methanol (−20 C) and stained with crystal violet. For sphere formation assay, 1,000/ml viable cells were treated for 6 h in round bottom 96-well plates and then cultured in suspension in serum-free DMEM/F12 1:1 (Invitrogen), supplemented with EGF (20 ng/ml, BD Biosciences), B27 (1:50, Invitrogen), 0.4% bovine serum albumin (Sigma) and 4 μg/ml insulin (Sigma). Spheres were counted after 1 or 2 weeks.

The subject of series [3] is breast cancer cell lines. Kind of series: Colony formation assay. The format is cell-based, human. The note with it: AsiC 4 uM, paclitaxel 100 nM. As to the method: as §1
The mark [4] stands for this setting: listed as EpCAM-AsiC targeting PLK1.

“Also recorded” adds a separate entry of the source.

B1: EpCAM-AsiC: EpCAM aptamer-siRNA chimera, siRNA cargo not specified at the place; 2'-fluoropyrimidines, 3'-dTdT (nucleic acid)
sense: GCGACUGGUUACCCGGUCGUUUUGAAGAAGAUCACCCUCCUUATT
antisense: UAAGGAGGGUGAUCUUCUUCATT
modifications: DNA at T, 2'-fluoro at CU, RNA at AG, backbone not given here; further chemistry not fully specified
notes: EpCAM aptamer-siRNA chimera, siRNA cargo not specified at the place; 2'-fluoropyrimidines, 3'-dTdT
For B1, the “tumor accumulation after intravenous injection” value in the series on subcutaneous tumors was “did not lead to significant AsiC accumulation within subcutaneous tumors”. For the same molecule, the “gene knockdown, EpCAM+ vs EpCAM− cells” value with EpCAM+ cell lines is “selectively knocked down expression in EpCAM+ breast and colon cancer cell lines but not in normal epithelial cells or mesenchymal tumor cells”. In addition, the innate immune stimulation entry in series [1] is “do not trigger innate immunity”; in series [1] (listed as EpCAM AsiCs) it was “does not stimulate innate immunity in mice”.

B2: PLK1 EpCAM-AsiC: EpCAM aptamer linked by U-U-U to PLK1 siRNA sense strand (SEQ ID NO: 1), annealed to antisense strand (SEQ ID NO: 2) (nucleic acid)
sense: GCGACUGGUUACCCGGUCGUUUUGAAGAAGAUCACCCUCCUUATT
antisense: UAAGGAGGGUGAUCUUCUUCATT
modifications: DNA at T, 2'-fluoro at CU, RNA at AG, backbone not given here; EpCAM aptamer fused to sense strand
As for B2, the “tumor initiation, EpCAM+ cells” value with MB468-luc cells (setting [4]) was “did not show any sign of a tumor after 20 days; also recorded: no tumor initiation”; in the series on MB468-luc cells (listed as PLK1 EpCAM-AsiCs) it was “completely blocked tumor formation; also recorded: eliminated tumor initiation by basal-like TNBCs; also recorded: eliminated their ability to form tumors in nude mice”. The “growth of EpCAM− MB231 tumors” value is “remained unchanged” in the series on MB231-luc-mCherry tumors (setting [4]), “continued to grow” in the series with MB231-luc-mCherry tumors (listed as PLK1-targeting AsiCs) and “had no effect on EpCAM− mesenchymal TNBCs; also recorded: had no effect on EpCAM− basal-B xenografts” in the series on MB231-luc-mCherry tumors (listed as PLK1 EpCAM-AsiCs). Also, in the series on Argonaute (AGO), the “PLK1 siRNA bound to Ago / in the RISC” value is listed as “PLK1 siRNA immunoprecipitated with Ago; also recorded: PLK1 siRNA was found in the RISC”. In addition, the “sphere/mammosphere formation, EpCAM+ basal-A and luminal lines” value with breast cancer cell lines [2] (setting [4]) was “specifically inhibited sphere formation in basal A and luminal; also recorded: decreased the number of spheres only in basal A and luminal cells”; in the series with breast cancer cell lines [2] (listed as PLK1 EpCAM-AsiCs), “more strongly inhibited colony and mammosphere formation of EpCAM+ basal-A TNBCs and luminal cell lines than paclitaxel; also recorded: eliminated mammosphere and colony formation; also recorded: more strongly inhibited colony and mammosphere formation of multiple EpCAM+ basal-like TNBCs and a luminal cell line than paclitaxel”. The “sphere/mammosphere formation, EpCAM− basal-B lines” value was “had no effect on basal B cells” in the series on breast cancer cell lines [2] (setting [4]) and “inactive against EpCAM− basal-B TNBCs” in the series with breast cancer cell lines [2] (listed as PLK1 EpCAM-AsiCs). In addition, the “colony formation, EpCAM+ basal-A and luminal lines” value was “lost the ability to form colonies; also recorded: only eliminated colony formation in luminal (MCF7) and basal A (HCC1954) cells” with breast cancer cell lines [3] (setting [4]); “more strongly inhibited colony and mammosphere formation of EpCAM+ basal-A TNBCs and luminal cell lines than paclitaxel; also recorded: eliminated mammosphere and colony formation; also recorded: more strongly inhibited colony and mammosphere formation of multiple EpCAM+ basal-like TNBCs and a luminal cell line than paclitaxel” with breast cancer cell lines [3] (listed as PLK1 EpCAM-AsiCs). Moreover, the “colony formation, EpCAM− basal-B lines” value in the series with breast cancer cell lines [3] (setting [4]) was “did not effect colony formation”; with breast cancer cell lines [3] (listed as PLK1 EpCAM-AsiCs), “inactive against EpCAM− basal-B TNBCs”.
